Experiments:
Assay in all cases: cell adhesion assay
[1] = target: E-cadherin-Fc E56A (human)
[2] = target: E-cadherin-Fc E89A (human)
[3] = target: E-cadherin-Fc KEG30-32RDT (human) (UniProt P12830)
[4] = target: E-cadherin-Fc K28A (human)
[5] = target: E-cadherin-Fc S83A (human) (UniProt P12830)
[6] = target: E-cadherin-Fc K25A (human)
[7] = target: E-cadherin-Fc K30A (human)
[8] = target: E-cadherin-Fc N27A (human)
[9] = target: E-cadherin-Fc E31D (human)
[10] = target: E-cadherin-Fc D44A (human)
[11] = target: E-cadherin-Fc N86A (human)
[12] = target: E-cadherin-Fc E31A (human)
[13] = target: E-cadherin-Fc K33A (human)
[14] = target: Purified human IgG1 (human)

## Integrin αEβ7 on human IEL-496 T cells (from UniProt P38570 19-1179; P26010 20-798) (complex)
[1]
  adhesion as percent of wild type (% of wild-type): > 82
  percent of cells bound: 60%
[2]
  adhesion as percent of wild type (% of wild-type): 20
  percent of cells bound: 12%
[3]
  adhesion as percent of wild type (% of wild-type): < 2
[4]
  adhesion as percent of wild type (% of wild-type): > 82
  percent of cells bound: 58%
[5]
  adhesion as percent of wild type (% of wild-type): > 82
  percent of cells bound: 68%
[6]
  adhesion as percent of wild type (% of wild-type): > 82
  percent of cells bound: 69%
[7]
  adhesion as percent of wild type (% of wild-type): > 82
  percent of cells bound: 58%
[8]
  adhesion as percent of wild type (% of wild-type): > 82
  percent of cells bound: 58%
[9]
  adhesion as percent of wild type (% of wild-type): < 2
[10]
  adhesion as percent of wild type (% of wild-type): > 82
  percent of cells bound: 59%
[11]
  adhesion as percent of wild type (% of wild-type): > 82
  percent of cells bound: 57%
[12]
  adhesion as percent of wild type (% of wild-type): < 2
[13]
  adhesion as percent of wild type (% of wild-type): > 82
  percent of cells bound: 60%

## E-cadherin on MCF-7 human breast epithelial cells (from UniProt P12830 155-882) (natural protein)
[1]
  adhesion as percent of wild type (% of wild-type): 90
[2]
  adhesion as percent of wild type (% of wild-type): 2
[4]
  adhesion as percent of wild type (% of wild-type): 94
[5]
  adhesion as percent of wild type (% of wild-type): 105
[6]
  adhesion as percent of wild type (% of wild-type): 76
[7]
  adhesion as percent of wild type (% of wild-type): 99
[8]
  adhesion as percent of wild type (% of wild-type): 62
[9]
  percent of cells bound: 41%
[10]
  adhesion as percent of wild type (% of wild-type): 94
[11]
  adhesion as percent of wild type (% of wild-type): 93
[12]
  percent of cells bound: 41%
[13]
  adhesion as percent of wild type (% of wild-type): 91

## Integrin αEβ7 on K562 transfectants (K562-αEβ7) (from UniProt P38570 19-1179; P26010 20-798) (complex)
[1]
  adhesion as percent of wild type (% of adhesion to wild-type): 102
[4]
  adhesion as percent of wild type (% of adhesion to wild-type): 79
[5]
  adhesion as percent of wild type (% of adhesion to wild-type): 80
[14]
  percent of cells bound: < 1%
[6]
  adhesion as percent of wild type (% of adhesion to wild-type): 87
[7]
  adhesion as percent of wild type (% of adhesion to wild-type): 53
[8]
  adhesion as percent of wild type (% of adhesion to wild-type): 57
[10]
  adhesion as percent of wild type (% of adhesion to wild-type): 105
[11]
  adhesion as percent of wild type (% of adhesion to wild-type): 86
[13]
  adhesion as percent of wild type (% of adhesion to wild-type): 104

Source: publication PMC2213439
